Target: HAdV-C5 capsid (replication-defective, E1-deleted vector HAdV-C5-GFP) (human adenovirus type C5)
Assay: SPR

Substance “recombinant human langerin protein (hCD207) (from UniProt Q9UJ71 1-328) (receptor)” has a Kd of 39 nM.

From publication doi:10.1101/2025.10.06.680090
